PMC5643558

Tests used:
TRIM21 [1] = molecular target: TRIM21 (UniProt P19474); assay: SFB-TRIM21 pull-down from cells, Flag blot; settings: reference: WT Flag-rPFKP, EGF; sites S386
TRIM21 [2] = molecular target: TRIM21 (UniProt P19474); assay: S-tag pull-down after in vitro kinase assay; settings: sites S386

## PFKP (phosphofructokinase 1 platelet isoform) (from UniProt Q01813) Flag-rPFKP S386A, EGF
TRIM21 [1]
  binding against the reference: stronger

## PFKP (phosphofructokinase 1 platelet isoform) (from UniProt Q01813) WT PFKP incubated with active GST-AKT1
TRIM21 [2]; reference: WT PFKP without AKT1
  binding against the reference: weaker

## PFKP (phosphofructokinase 1 platelet isoform) (from UniProt Q01813) PFKP S386A incubated with active GST-AKT1
TRIM21 [2]; reference: WT PFKP incubated with active GST-AKT1
  binding against the reference: stronger
